This passage reports protein stability index results from the supplement of paper PMC10724198.

± gives the standard deviation of the averaged measurements.
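Further: PSI is a weighted mean of sequencing reads over stability bins, variants kept only with over 10 reads, mCherry proximal and sfGFP distal, peptide attached via GGGS linker.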

In this data set the test system is Saccharomyces cerevisiae. In words: protein stability index of tFT-peptide fusion (C-terminal peptide) (PSI (0-1 scale)); higher = more stable (slower turnover). Conditions: genetic background: wild type; temperature: 30 C.
The sequence LADFGREKNSLG gave a protein stability index of 0.703 ± 0.0068.
The figure for LADLSAPAPCLP is 0.689 ± 0.091.
The figure for LAGLNDSVRRAV is 0.749 ± 0.036; for LAGLRLPNDLGP it is 0.712 ± 0.059; for LAGSHSRTQGRT it is 0.695 ± 0.037.
The figure for LAGVSSPLPPPP is 0.685 ± 0.025; for LAPALSHSPPLT it is 0.715 ± 0.078.
Turning to LARGGAAIGGES, the protein stability index was 0.729 ± 0.086.
To LAVPPSLPPPTR belongs 0.7254 ± 0.0063; to LCDLGLMLFPFV, 0.666 ± 0.032; to LCFGGLVLFSFG, 0.601 ± 0.035.
In the case of LCGAVVEGGGEE, the protein stability index worked out at 0.5743 ± 0.004.
The figure for LCLFSVRPARLL is 0.753 ± 0.13.
To LCLGVLRSDCVV belongs 0.675 ± 0.011; to LCLREPTITTQW, 0.786 ± 0.3.
The figure for LCPPPRPPRSHL is 0.941 ± 0.039.
For the sequence LCSRICGVVARA, the protein stability index is 0.613 ± 0.042.
To LCVVRGLLCSPL belongs 0.628 ± 0.0092; to LDAMNTSWYVKM, 0.676 ± 0.025.
The figure for LDARYRSSVGFK is 0.68876 ± 0.00018; for LDGAGFLLSWYH it is 0.749 ± 0.013.
The figure for LDGIKVKFRRSL is 0.698 ± 0.013; for LDKGNQDHEWTR it is 0.654 ± 0.023.
For LDLAMRQYDLTG, the protein stability index turned out to be 0.681 ± 0.06.
The figure for LDSGSVYMSRDI is 0.652 ± 0.015.
For LDSRSELGRGLK, the protein stability index amounted to 0.714 ± 0.018.
To LDVFPVWSDANA belongs 0.714 ± 0.031; to LEGGAGRPDGTG, 0.671 ± 0.047.
In turn, LEGILFGPKIAT gave a protein stability index of 0.6227 ± 0.0049.
To LEHPAHPTKLQL belongs 0.7067 ± 0.0033; to LEKKRRKNKKEG, 0.787 ± 0.14; to LEMTGGACGGGK, 0.675 ± 0.029.
The figure for LEPGSYRKRKPP is 0.587 ± 0.023; for LERKRKYSPHDQ it is 0.677 ± 0.025; for LERSSHRTEFLS it is 0.587 ± 0.032.
The figure for LEYLGFSLSGFR is 0.724 ± 0.016; for LFAAPARTSAPC it is 0.779 ± 0.055; for LFCVAPLGSVSY it is 0.652 ± 0.033.
The sequence LFFGVACSWFSV gave a protein stability index of 0.621 ± 0.013.
To LFGFLGVAACVV belongs 0.483 ± 0.048; to LFHAPLFPPSSF, 0.657 ± 0.04.
To LFLEGWIRKGVR belongs 0.7427 ± 0.0059; to LFLPLPRCHALP, 0.7037 ± 0.0066; to LFLSLSGSYRCI, 0.532 ± 0.079.
To LFPLSSPFPSTS belongs 0.766 ± 0.23; to LFPPPPSPLGHS, 0.75227 ± 0.00052.
For LFPYPPASALLR, the protein stability index is 0.662 ± 0.019.
To LFSLFFPTCFRF belongs 0.557 ± 0.0092; to LFSPPTFFLFHR, 0.6445 ± 0.0046.
To LFSSLNLFSSRD belongs 0.7355 ± 0.0033; to LFVEFFACRSFN, 0.722 ± 0.011; to LFVSLLGAFVVG, 0.529 ± 0.03.
To LFYFPVLSGFLA belongs 0.578 ± 0.002; to LGAHRPLLSVLH, 0.661 ± 0.037.
LGFPSFFPNVSV gave a protein stability index of 0.6946 ± 0.0017.
To LGGGAGAPPSHW belongs 0.7 ± 0.024; to LGGPGAVWGRGR, 0.697 ± 0.0084.
In turn, LGGWVGGRGVRG returned a protein stability index of 0.717 ± 0.096.
To LGIGTWGHRGDD belongs 0.712 ± 0.015; to LGLSTLLVPHTR, 0.743 ± 0.028.
The figure for LGNPVLRFILEK is 0.597 ± 0.094; for LGPLILDGATDC it is 0.688 ± 0.11.
The figure for LGQWGGGLSGSV is 0.685 ± 0.033; for LGRGEVWYIDRG it is 0.696 ± 0.017; for LGRRHAYGSALS it is 0.708 ± 0.12.
Sequence LGSAIQGFLILT displayed a protein stability index of 0.5996 ± 0.0017.
To LGSSGCVLVGWG belongs 0.683 ± 0.0084; to LGSSPPPTLPPP, 0.701 ± 0.031.
The figure for LGVGVGGRGVRG is 0.745 ± 0.0098; for LGVLGGGRRFGV it is 0.715 ± 0.019; for LGVRSGGSWRAG it is 0.792 ± 0.064.
To LGVVCLGADLLR belongs 0.693 ± 0.026; to LHAPFPLPPPPP, 0.647 ± 0.026.
Turning to LHCLGFWRVMYG, the protein stability index was 0.6538 ± 0.0011.
LHCPRICYSPHL gave a protein stability index of 0.715 ± 0.059.
To LHEHHSFCFRLL belongs 0.658 ± 0.1; to LHFYSLMEFQCD, 0.695 ± 0.038; to LHHPPSPLRNPP, 0.687 ± 0.059.
The figure for LHHYPLVISGVS is 0.47 ± 0.12.
The figure for LHPPLPPLPFSA is 0.679 ± 0.017; for LHVPPSPFPTPP it is 0.679 ± 0.049.
With LIAGLNLASYGL, the protein stability index was determined as 0.643 ± 0.1.
To LIALSLPSSFVF belongs 0.594 ± 0.025; to LICVSTLAPSGQ, 0.676 ± 0.0078.
The figure for LIFACIYFSGVV is 0.644 ± 0.047; for LIGASFGLYPVS it is 0.693 ± 0.07.
The figure for LIHCVSTFRCGE is 0.622 ± 0.026; for LIIMPTFDISAP it is 0.7273 ± 0.0059.
On to LILEKHEMIGRR, for which the protein stability index was found to be 0.681 ± 0.026.
LIPLSLPSCPLS had a protein stability index of 0.69 ± 0.085.
To LITCHSHKPQQI belongs 0.704 ± 0.098; to LKRKRKYKKQGV, 0.786 ± 0.01.
Regarding LKRRREGEPGKQ, the protein stability index came out at 0.625 ± 0.053.
The figure for LKRSYKKQRDNV is 0.698 ± 0.14.
To LLAFSPFLPLPP belongs 0.667 ± 0.046.
The figure for LLANLRSSIDIQ is 0.709 ± 0.18; for LLCGVLGLAWVW it is 0.553 ± 0.029.
On to LLCRGLGSVGRR, for which the protein stability index was 0.63 ± 0.18.
As for LLDLVVTAMCVL, the protein stability index was determined as 0.587 ± 0.032.
The figure for LLESFCVSWCSW is 0.617 ± 0.012; for LLFDIYSPTCPS it is 0.628 ± 0.02.
The figure for LLFLPRPPVCSR is 0.649 ± 0.11; for LLGRRSHTPDEP it is 0.723 ± 0.013.
The figure for LLHPFPPLCRHP is 0.716 ± 0.018; for LLHPSPTPPCPP it is 0.696 ± 0.06.
Sequence LLLLFLCSPSSL gave a protein stability index of 0.496 ± 0.041.
The figure for LLLLRPPLGASF is 0.711 ± 0.016; for LLLPPPLSASSS it is 0.633 ± 0.028; for LLLRGSGRSLAL it is 0.709 ± 0.0082.
The figure for LLLRLAASSSLS is 0.703 ± 0.027; for LLLSQSSFCLTC it is 0.637 ± 0.046.
To LLNAGAMKGRLG belongs 0.6782 ± 0.0038.
LLNNNLNQRIYQ had a protein stability index of 0.729 ± 0.019.
To LLPALPPRCISF belongs 0.7343 ± 0.005; to LLPLLPPAPPSP, 0.687 ± 0.024; to LLPPAPLPPSLG, 0.722 ± 0.016.
